From paper PMC5012862, “Structural characterization of encapsulated ferritin provides insight into iron storage in bacterial nanocompartments” (eLife, 2016)
Blank lines part the entries; values can stand above or below the molecule they belong to.

Experiments:
[1] = target: EncFtnsH H65A mutant (Rhodospirillum rubrum) (UniProt Q2RVS1); experiment: native MS; nESI, 100 mM ammonium acetate pH 8.0, about 5 uM protein; apo protein made in minimal medium, no Fe2+ added
[2] = target: EncFtnsH H65A mutant (Rhodospirillum rubrum) (UniProt Q2RVS1); experiment: crystal structure; hanging drop, 292 K, 0.14 M calcium acetate, 15% PEG 3350; cryoprotectant with 1 mM FeSO4; three decamers in the asymmetric unit; mutants crystallized in the same manner
[3] = target: the molecule itself; experiment: SEC; analytical gel filtration of EncFtnsH monomer at 700 uM, compared with 90 uM; no metal added
[4] = target: the molecule itself; experiment: SEC; preparative Superdex 200 16/60 after nickel affinity; 50 mM Tris-HCl pH 8.0, 150 mM NaCl; protein from E. coli grown in SeMet medium + 1 mM Fe(NH4)2(SO4)2, in MM, or in MM + 1 mM Fe(NH4)2(SO4)2
[5] = target: the molecule itself; experiment: as above; remark: listed apart in the source
Q2RVS1 = experiment: SEC; analytical gel filtration, Superdex 200 PC 3.2/30 (Table 3 caption: 10/300 GL), 15 C, GF buffer; 90 uM EncFtnsH monomer or decamer fractions, alone or after 2 h at room temperature with one molar equivalent of metal salt
[6] = target: the molecule itself; experiment: SEC; size-exclusion chromatography of the purified full-length EncFtn; column and buffer not told for this protein

- stoichiometry N [1]: 2
- stoichiometry N [2]: 10
Molecule: EncFtnsH H65A mutant (from UniProt Q2RVS1 1-96) (domain or fragment)

B1: EncFtnsH: truncated C-terminal hexahistidine-tagged variant of Rhodospirillum rubrum encapsulated ferritin (EncFtn, Rru_A0973), amino acids 1-96 plus the tag (domain or fragment, UniProt Q2RVS1 1-96, looked up)
chain: MAQSSNSTHEPLEVLKEETVNRHRAIVSVMEELEAVDWYDQRVDASTDPELTAILAHNRDEEKEHAAMTLEWLRRNDAKWAEHLRTYLFTEGPITA
notes: amino acids 1-96 of the 140-residue protein; Monomer predicted mass 13,194.53 Da with the tag; also called wild-type EncFtnsH; WT; source: for crystals anion exchange and SEC; not shown: His6, C-terminal, kept
- stoichiometry N [3]: 2
- stoichiometry N [4]: 10
- decamer/monomer peak area ratio (cells grown in MM + 1 mM Fe(NH4)2(SO4)2) [5]: 4.5
- decamer/monomer peak area ratio (decamer fractions, no metal added, day 1) (Q2RVS1): 11.2
- decamer/monomer peak area ratio (monomer fractions, no metal added, day 1) (Q2RVS1): 0.1
- decamer/monomer peak area ratio (monomer fractions, no metal added, day 2) (Q2RVS1): 0.4
- decamer/monomer peak area ratio (monomer fractions, no metal added, day 3) (Q2RVS1): 0.3
- decamer/monomer peak area ratio (with Ca acetate) (Q2RVS1): 0.2
- decamer/monomer peak area ratio (with CoCl2) (Q2RVS1): 1.2
- decamer/monomer peak area ratio (with Fe(NH4)2(SO4)2) (Q2RVS1): 0.8
- decamer/monomer peak area ratio (with FeCl3) (Q2RVS1): 0.1
- decamer/monomer peak area ratio (with FeSO4-HCl) (Q2RVS1): 1
- decamer/monomer peak area ratio (with MgSO4) (Q2RVS1): 0.2
- decamer/monomer peak area ratio (with MnCl2) (Q2RVS1): 0.1
- decamer/monomer peak area ratio (with ZnSO4) (Q2RVS1): 2.3

B2: EncFtnsH E62A mutant (domain or fragment, Rhodospirillum rubrum, UniProt Q2RVS1 1-96, looked up)
chain: MAQSSNSTHEPLEVLKEETVNRHRAIVSVMEELEAVDWYDQRVDASTDPELTAILAHNRDEAKEHAAMTLEWLRRNDAKWAEHLRTYLFTEGPITA
notes: amino acids 1-96, with E62A; Single mutant of EncFtnsH; source: E. coli BL21(DE3) grown in MM or MM supplemented with iron; purified (Superdex 200 SEC); not shown: His6, C-terminal, kept
- stoichiometry N [4]: 10

B3: EncFtnsH E32A mutant (domain or fragment, Rhodospirillum rubrum, UniProt Q2RVS1 1-96, looked up)
chain: MAQSSNSTHEPLEVLKEETVNRHRAIVSVMEALEAVDWYDQRVDASTDPELTAILAHNRDEEKEHAAMTLEWLRRNDAKWAEHLRTYLFTEGPITA
notes: amino acids 1-96, with E32A; Single mutant of EncFtnsH; source: E. coli BL21(DE3) grown in MM or MM supplemented with iron; purified (Superdex 200 SEC); not shown: His6, C-terminal, kept
- stoichiometry N [4]: 10

B4: Rhodospirillum rubrum EncFtn, full-length sequence (140 amino acids), purified alone (natural protein, UniProt Q2RVS1 1-140, looked up)
chain: MAQSSNSTHEPLEVLKEETVNRHRAIVSVMEELEAVDWYDQRVDASTDPELTAILAHNRDEEKEHAAMTLEWLRRNDAKWAEHLRTYLFTEGPITAIEAADTAGEGSGGDAAKGATAQGDGSLGIGSLKGEAALARPPRL
notes: primers are in Supplementary file 2; also called encapsulated ferritin; source: E. coli, recombinant, purified (SEC)
- binding result [6]: binds
